We go through 41 sequences from the nanobody polyreactivity screen of Harvey et al. (2022).

The nature of this series: yeast display, Sf9 membrane polyspecificity reagent, FACS + sequencing; frameworks hold sequencing errors. An outline of the steps:
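Polyreactivity labels are assigned by the sorting gate from which each nanobody was recovered. The gates were low and high (top ~1%), set on anti-HA fluorescence for expression and streptavidin fluorescence for reagent binding. Before sorting, galactose-induced (36–48 hours) yeast display cells were stained for 1 hour at 4 °C with 10% biotinylated, detergent-solubilized Sf9 membrane reagent.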
In the case of “QVQLVESGGGLVQAGGSLRLSCPASGIIFNDYAMGWYRQAPGKEREMVAAITSNGDNTYYADSVKGRFTISRDNAKNTVYLQMNSLKPEDTAVYYCAVDGSFAADFDNYLEEYGYWGQGTQVTVSS”, the “polyreactivity (PSR sort gate)” value is “low polyreactivity”.

Consider “KVQLVESGGGLVQAGGSLRISCAASGRICWGYVMGWYRQAPGKERELVAAISSGGDTHYADSVKGRFTISRDNAKNTVYLQMNSLKPEDTGVYYCAARPNFTPYEYGYWGQGTQVTVSS”, for which the “polyreactivity (PSR sort gate)” value is listed as “low polyreactivity”.

Take “QVQLVESGGGLVQAGGSLRLSCAASGSIFDGYAMGWYRQAPGKEREFVASIRFSTGRTYYADSVKGRFTISRDNAKNSVYLQMNSLKPEDTAGYYCNAPQGFVWRYSSWGPYDYWGQGTQVTVSS”: the “polyreactivity (PSR sort gate)” value is “high polyreactivity”.

Turning to “QVQLEESGGGLVQAGGSLRLSCAASGSTFVYNAMGWYRQAPGKEMELVAAISRRGGSTYYADSVKGRFTISRDNAKNTVYLQMNSLKPEDTAVYYCAADPSYYTYFSFDLSESDYWGQGTQVTVSS”, the “polyreactivity (PSR sort gate)” value is on record as “low polyreactivity”.

On to “QVQLVESGGGLVQAGGSLRLSCAASGFTFYRYAMGWYRQAPGKERELVAAITQSGGSTYYADSVKGRFTISRDNAKNTVYLQMNSLKPEDTAVYYCAARYRYDYGYGLGYSWGQGTQVTVSS”, for which the “polyreactivity (PSR sort gate)” value is listed as “high polyreactivity”.

Consider “QVQVVESGGGLVQAGGSLGLSCAASGFTFGRYARGWYRQAPGKERELVAAISRGGSTYYADSVKGRFTISRDNAMYTDYLQMNSLKTEDTAVYYCNAAGLPTQLYYWGQGTQVTVSS”, for which the “polyreactivity (PSR sort gate)” value was “high polyreactivity”.

“QVQLVESGGGLVQAGGSLRLSCAASGRIFAYYAMGWYRQAPGKERELVAAINWSGDGTIYADSVKWRFTISRDNAKNTVYLQMNSLKPQDTAVYYCNADWTSYGFGTRLDYWGQGNQVTVSS”: the “polyreactivity (PSR sort gate)” value is given as “low polyreactivity”.

For “QVQLVESGGGLVQAGGSLRLSCAASGSIFYYYTMGWYRQAPGKERELVAAITWSGSTYYADSVKGRFTISRDNAKNTVYLQMNSLKPEDTAVYYCNADALIAAYKYFPYTYRFNYWGQGTQVTVSS”, the “polyreactivity (PSR sort gate)” value was “low polyreactivity”.

Regarding “QVQLVESVGGLVQAGGSLRLSCAASGSTFYIYAMGWYRQAPGKERELVADINNSDSTYYADSVKGRFTISRDNAKITVYLQMYSLKPEDTAVYYCAAYDYYIGAYSYGGSDYDYWGQGTQVTVSS”, the “polyreactivity (PSR sort gate)” value was “low polyreactivity”.

Regarding “QVQLVESGGGLVQAGGSLRLSCAASGSIFPYYAMGWYRQATGKERELVATITSRGGSTYYADSVKGRFTISRDNAKNTVYLQMNSLIPEDTAVYNCAKEYRYYRRRYDYWGQGTQVTVSS”, the “polyreactivity (PSR sort gate)” value is “high polyreactivity”.

Consider “QDQLVESGGGLDQAGGSLRLSGAASGGILPRYAMGWYRQAPGKERELVAGITRGGSTYYADSVKGRFSISRDNAKNTVYLQMNSLKPEDTAVYYCAKYGYQTGIFYYWGQGTQVTVSS”, for which the “polyreactivity (PSR sort gate)” value is “high polyreactivity”.

Turning to “QVQLVESGGGLVQAGGSLRLSCAASGSTFKFYTMGWYRQAPGKERELVATIDWSGGSTYYADSVKGRFTISRDNAKNTVYLQMNSLKPEDTSVYYCAAYSRSRTTRLGKYYYWGQGTQVTVSS”, the “polyreactivity (PSR sort gate)” value was “high polyreactivity”.

In the case of “QVQLVESGGGLVQAGGSLRLSCAASGFIFYAYAMGWDRQAPGKERELVAAISRGGGSTYYADSVKGRFTISRDNAKNTVYLQMNSLKPEDTAVYYCAADFYYDRDVDFWGQGTQVTVSS”, the “polyreactivity (PSR sort gate)” value is reported as “high polyreactivity”.

As for “QVQHVESGGGLVQAGGSLRLSCAASGRTFYNYAKGWYRQAPGKERELVAGITSCGGSTYYADSVKGRFTISRDNAKNTVYLQMNSLKPEDTAVYYCARVWPSQKHYYWGQGTQVTVSS”, the “polyreactivity (PSR sort gate)” value is “high polyreactivity”.

Take “QVQLVESGGGLVQAGGSLRLSFAASGRTFPDNAMGWYRQAPGTQRELVATISWSGGSTYYADSVKGRFTISRDNAKNTVYLQMNSLKPEDTAVYYCARDSLQVFYPYASDDYWGQGTQVTVSS”: the “polyreactivity (PSR sort gate)” value is “low polyreactivity”.

In the case of “QVQLVESGGGLVQAGGSLRLSCAASGRIFWGYSMGWYRQAPGKERELVAAITSGGRTYYADSVKGRFTISRDNAKNTVYLQMNSLKPEDTAVYYCAAVYVPYYWLGRSRGLDYWGQGTQVTVSS”, the “polyreactivity (PSR sort gate)” value is given as “high polyreactivity”.

In the case of “QVQLVESGGGLVQAGGSLRLSCAASGNIFRGYTMGWSRQAPGKERELVAAISYSGGSTYADSVKGRFTISRDNAKNTVYLQMNSLKPEDTAVYYCNTDTSVDVRFDYWGQGTQVTVSS”, the “polyreactivity (PSR sort gate)” value is listed as “low polyreactivity”.

Take “QVQLVESGGGLVQAGGSLRLSCAASGITLFHYVMGWYRQAPGKERELVADITWRGGNTFYADSVKGRFTISRDNAKNTVYLQMNSLKPEDTAVYYCAVRQAYRTRDYDYWGQGTQVTVSS”: the “polyreactivity (PSR sort gate)” value is “high polyreactivity”.

For the sequence “QVQLVESGGGLVQAGGSLRLSCAASGRTFDVYAMGWYRQPPGKESELVATISYRSARTYSADSVKGRFTISRDNAKNTVYLQMNSLKPEDTAVYYCAARVGARVSQPRRHGRFNYWGQGTQVTVSS”, the “polyreactivity (PSR sort gate)” value was “high polyreactivity”.

As to “QVQLVETGGGLVQAGGSLRLSCAASGSTFGWNAMGWYRQAPGKERELVAAITGGGSTYYADSVKGRFTISRDNAKNTVYLQMNSLKPEDTAVYYCEGDYWGQGTQVTVSS”, the “polyreactivity (PSR sort gate)” value is listed as “low polyreactivity”.

In the case of “QVQLVESGGVLVQAGGSLRISCAASGFIFAYNAMGWYRQAPGKETELVAAISWNGGNTYYADSVKGRFTISRDNAKNTVYLQMNSLKPEDTAVYYCAAIPKPFRSYGYWGKGTQVTVSS”, the “polyreactivity (PSR sort gate)” value is on record as “high polyreactivity”.

As to “QVQLVESGGGLVQAGGSLRLSCAASGRIFGRYAMGWYRQAPGKERELVAAISSGGNTYYADSVKGRFTISRDNAKNTVYLQMNSLKPEDTAVYYCKALYYRQPGYDYWGQGTQVTVSS”, the “polyreactivity (PSR sort gate)” value was “high polyreactivity”.

As to “QVQLVESGGGLVQAGGSLRLSCAASGIILHYYAMGWYRQAPGKQRELVAAISARGGRTYYADSVKGRFTISRDNAKNTVYLQMNSLKPEDTAVYYCAAVTVASPTRMDYWGQGTLVTVSS”, the “polyreactivity (PSR sort gate)” value is reported as “high polyreactivity”.

Take “QVQLVESGGGLVQAGGSLRLSCAASGFIFIYNAMGWYRQAPGKERELVAAITGSDGGTFYADSVKGRFTISRDNAKNTVYLQMNSLKPEDTAVYYCNADIVGFQWGYDYWGQGTQVTVSS”: the “polyreactivity (PSR sort gate)” value was “low polyreactivity”.

For “QVQLVESGGGLVQAGGSLRLSCAASGSTFKQYAMGWYRQAPGKERELVADINVRDGGTYYADSVKGRFTISRDNAKNTVYLQMNSLKPEDTAVYYCAKDYYACYWEMDYWGQGTQVTVSS”, the “polyreactivity (PSR sort gate)” value was “low polyreactivity”.

With “QVQLVESGGGLVQAGGSLRLSCAASGFTFKYKAMGWYRQAPGKERELVAVISSSGGRTYYADSVKGRFTISRDNAKNTVYLQMNSLKPEDTAVYYCAADTFVWADWSWHYYWRQGTQVTVSS”, the “polyreactivity (PSR sort gate)” value was “high polyreactivity”.

With “QVQLVESGGGLVQAGGSLRLSCAASGNIISNNAMGWYRQAPGKERELVAAIDWSGGRTYYADSVKGRFTISRDNAKNNVYIQMNSLKPEDTAVYYCAAEIPFTYRGVFYEYYYWGQGTQVTLSS”, the “polyreactivity (PSR sort gate)” value is given as “high polyreactivity”.

On to “QVQLVESGGGLVQAGGSLRLSCAASGFTFYHYAMGWYRQAPGKERELVAAISRSAGSTYYADSVKGRFTISRDNAKNTVYLQMNSLKPEDTAVYYCAKVLRAKNSFDYWGQGTHVTVSS”, for which the “polyreactivity (PSR sort gate)” value was “high polyreactivity”.

Turning to “QVQLVESGGGLVQAGGSLRLSCAASGRTFYRYAMGWYRQAPGKERELVAAITSGDRTDYADSVKGRFTISRDNAKNTVYLQMNSLKPEDTAVYYCAADPYYVTDYDYWGEGTQVTVSS”, the “polyreactivity (PSR sort gate)” value was “low polyreactivity”.

Regarding “QVQLVESGGGLFQAGGSLRVSCAASGRTFVNYAMGWYRQAAGKERELVAAISTSGGSTYYADSVKGRFTISRDNAKNTDYYQRNSLKPEDTAVYYCKKVRYLAVNLGQFTFDYWGQGTQGTVSS”, the “polyreactivity (PSR sort gate)” value is “low polyreactivity”.

Turning to “QVQLVESGGGLVQAGGSLRLSCAASGSTFRNYAMGWYRQAPGKEREFVAAITWSGGRTYYADSVKGRFTISRDNAKNTVYLQMNSLKPEDTAVYYCAARYRRGYDYWGQGTQVTVSS”, the “polyreactivity (PSR sort gate)” value is reported as “high polyreactivity”.

For the sequence “QVQLVESVGVLVQAGGSLRLSCAASGRTFYRNAVGWYRQAPGKERELVAAISRSGTRTYYADSVKGRFTISRDNATNTVYLQMNSLKPEDTAVYYCNALRVDGGDYWGQGTQVTVSS”, the “polyreactivity (PSR sort gate)” value was “high polyreactivity”.

Take “QVQLVESGGGLVQAGGSLRLSCAASGSIFTKYAMGWYRPAPGKERELVAAISYSGGTRTYYADSVKGRFTSSRDNAKNTVYLQMNSLKPEDTAVYYCAARRYTRRANPAYPYEYWGQGTQVTVSS”: the “polyreactivity (PSR sort gate)” value is recorded as “high polyreactivity”.

Turning to “QVQLVESGGGLVQAGGSLRLTCSASGSTFPSNSMGGYRQAPGKERELVAAITFRGGRTYYADSVKGRFTISRDNAKNTVYLQMNSLIPEDTAVYYCAAERWWYTVRGYGYWGQGTQVTVSS”, the “polyreactivity (PSR sort gate)” value is listed as “high polyreactivity”.

As for “QVQLVESGGGLVQAGGSLRLSCAASGRIFQRYAMGWYRQAPGKERELVATITRSGGSTYYADSVKGRFTISRDNAKNTVYLQMNSLKPEDTAVFYCSRQWYRYGMGYWGQGTQVSVSS”, the “polyreactivity (PSR sort gate)” value is on record as “high polyreactivity”.

Regarding “QVQLVESGGGLVQAGGSLRLSCAASGRIFDGNAMGWYRQAPGKERELVAAISSSGGSTYYADSVKGRFTISRDNAKNTVYLQMNSLKPEDTAVYYCAYPLRRTWGNYRYGYWGQGTQVTVSS”, the “polyreactivity (PSR sort gate)” value is reported as “high polyreactivity”.

With “QVQLVESGGGLVQAGGSLRLSCAASGYIFYYNTMGWYRQAPGKERELVAAIRSSGGSTYYADSVKGRFTISRDNAKNTVYLQMNSLKPEDTAVYYCAARPYRTKLIYGYWGQGTQVTVSS”, the “polyreactivity (PSR sort gate)” value is given as “high polyreactivity”.

With “QVQLVESGGGLVQAGGSLRLTSAASGRTFTSNVMGWYSQAPGKEWEVVAAISSSGGRTYYADSVKGRFTISRDNAKNTVYLQMNSLKPEDTAVYYCAGDGDPEYPRYGYWGKGTQVTVSS”, the “polyreactivity (PSR sort gate)” value was “high polyreactivity”.

Take “QVQLVESGGGLVQEGGSLRLSCAASGSIFNTYAMGRYRQAPGKEREMVAGITKTGSRTYYADSVKGRFTISRDNAKNTVYLQMNSLKPEDTAVYYCNARIWPRSYRYDYWGQGTQVTVSS”: the “polyreactivity (PSR sort gate)” value was “high polyreactivity”.

With “QVQLVESGAGLVLAGGSLRLSCAASGRTFRLYAMGWYRQAPGKERELVAAISYSDGRTYYADSVKGRFTISRDNAKNTVYLQMNSLKPEDTAVYYCAAETLYVAGSYYWGQGTQVTVSS”, the “polyreactivity (PSR sort gate)” value was “high polyreactivity”.

“QVQLVESGGGLVQAGGSLRLSCAASGSTLAKYAMGWYRQAPGKERELVAAISRSGGRTYYADSEKGRFTISRDNAKNSVYLQMNSLKPEETAVYYCAARARSSRTYHDDYWGQGTQVTVSS”: the “polyreactivity (PSR sort gate)” value is listed as “high polyreactivity”.
